Experimental data published in patent publication US20190076400A1 (PROTAGONIST THERAPEUTICS, published 2019).
Square brackets hold non-standard residues; d marks the D form. Primed or numbered codes have the meaning given here. Phe(2,6-Me2,4-CONH2) = Cc1cc(C(N)=O)cc(C)c1C[C@H](N)C(=O)O; Phe(3,4-(OMe)2) = COc1ccc(C[C@H](N)C(=O)O)cc1OC; Phe(3,4-Cl2) = N[C@@H](Cc1ccc(Cl)c(Cl)c1)C(=O)O; Trp(5-OH) = N[C@@H](Cc1c[nH]c2ccc(O)cc12)C(=O)O; Phe(4-COOH) = N[C@@H](Cc1ccc(C(=O)O)cc1)C(=O)O; Phe(4-tBu) = CC(C)(C)c1ccc(C[C@H](N)C(=O)O)cc1; Dip = N[C@H](C(=O)O)C(c1ccccc1)c1ccccc1; Phe(4-F) = N[C@@H](Cc1ccc(F)cc1)C(=O)O; Dmt = Cc1cc(O)cc(C)c1C[C@H](N)C(=O)O; NMeR = CN[C@@H](CCCNC(=N)N)C(=O)O; dNMeF = CN[C@H](Cc1ccccc1)C(=O)O; hPhe = N[C@@H](CCc1ccccc1)C(=O)O; αMeF = C[C@](N)(Cc1ccccc1)C(=O)O; Tic = O=C(O)[C@@H]1Cc2ccccc2CN1; β3hF = N[C@H](CC(=O)O)Cc1ccccc1; N(octyl)Gly = CCCCCCCCNCC(=O)O; Tic(7-OH)′ = not defined here; Nle = CCCC[C@H](N)C(=O)O; THP = not defined here; Aib = CC(C)(N)C(=O)O; βAla = NCCC(=O)O; Sar = CNCC(=O)O

B1: H-Phe(4-tetrazolyl)-a-G-bhF-Sar-NH2 (peptide)
peptide: H-[Phe(4-tetrazolyl)][dA]G[β3hF][Sar]-NH2
B2: H-DMT-r-F-Phe(4-F)-NH2 (peptide)
peptide: H-[Dmt][dR]F[Phe(4-F)]-NH2
B3: H-DMT-r-F-V-NH2 (peptide)
peptide: H-[Dmt][dR]FV-NH2
SMILES: Cc1cc(O)cc(C)c1C[C@H](N)C(=O)N[C@H](CCCNC(=N)N)C(=O)N[C@@H](Cc1ccccc1)C(=O)N[C@H](C(N)=O)C(C)C
B4: H-DMT-r-F-HomoPhe-NH2 (peptide)
peptide: H-[Dmt][dR]F[hPhe]-NH2
SMILES: Cc1cc(O)cc(C)c1C[C@H](N)C(=O)N[C@H](CCCNC(=N)N)C(=O)N[C@@H](Cc1ccccc1)C(=O)N[C@@H](CCc1ccccc1)C(N)=O
B5: H-DMT-a-Val-bhF-Sar-NH2 (peptide)
peptide: H-[Dmt][dA]V[β3hF][Sar]-NH2
SMILES: Cc1cc(O)cc(C)c1C[C@H](N)C(=O)N[C@H](C)C(=O)N[C@H](C(=O)N[C@H](CC(=O)N(C)CC(N)=O)Cc1ccccc1)C(C)C
B6: H-DMT-N(Me)Arg-G-bhF-Sar-NH2 (peptide)
peptide: H-[Dmt][NMeR]G[β3hF][Sar]-NH2
SMILES: Cc1cc(O)cc(C)c1C[C@H](N)C(=O)N(C)[C@@H](CCCNC(=N)N)C(=O)NCC(=O)N[C@H](CC(=O)N(C)CC(N)=O)Cc1ccccc1
B7: H-Trp(5-OH)-a-G-bhF-Sar-NH2 (peptide)
peptide: H-[Trp(5-OH)][dA]G[β3hF][Sar]-NH2
B8: H-Phe(4-NHCOCH3)-a-G-bhF-Sar-NH2 (peptide)
peptide: H-[Phe(4-NHCOCH3)][dA]G[β3hF][Sar]-NH2
B9: H-DMT-r-G-W-NH2 (peptide)
peptide: H-[Dmt][dR]GW-NH2
SMILES: Cc1cc(O)cc(C)c1C[C@H](N)C(=O)N[C@H](CCCNC(=N)N)C(=O)NCC(=O)N[C@@H](Cc1c[nH]c2ccccc12)C(N)=O
B10: H-DMT-a-bAla-bhF-Sar-NH2 (peptide)
peptide: H-[Dmt][dA][βAla][β3hF][Sar]-NH2
B11: H-DMT-r-G-DPA-NH2 (peptide)
peptide: H-[Dmt][dR]G[Dip]-NH2
SMILES: Cc1cc(O)cc(C)c1C[C@H](N)C(=O)N[C@H](CCCNC(=N)N)C(=O)NCC(=O)N[C@H](C(N)=O)C(c1ccccc1)c1ccccc1
B12: H-DMT-r-F-L-NH2 (peptide)
peptide: H-[Dmt][dR]FL-NH2
SMILES: Cc1cc(O)cc(C)c1C[C@H](N)C(=O)N[C@H](CCCNC(=N)N)C(=O)N[C@@H](Cc1ccccc1)C(=O)N[C@@H](CC(C)C)C(N)=O
B13: H-meta-Tyr-a-G-bhF-Sar-NH2 (peptide)
peptide: H-[Phe(3-OH)][dA]G[β3hF][Sar]-NH2
B14: H-DMT-r-F-Nle-NH2 (peptide)
peptide: H-[Dmt][dR]F[Nle]-NH2
SMILES: CCCC[C@H](NC(=O)[C@H](Cc1ccccc1)NC(=O)[C@@H](CCCNC(=N)N)NC(=O)[C@@H](N)Cc1c(C)cc(O)cc1C)C(N)=O
B15: H-Tic(7-OH)-a-G-bhF-Sar-NH2 (peptide)
peptide: H-[Tic(7-OH)′][dA]G[β3hF][Sar]-NH2
B16: H-Phe(4-COOH)-a-G-bhF-Sar-NH2 (peptide)
peptide: H-[Phe(4-COOH)][dA]G[β3hF][Sar]-NH2
B17: H-DMT-a-THP-bhF-Sar-NH2 (peptide)
peptide: H-[Dmt][dA][THP][β3hF][Sar]-NH2
modifications: reading uncertain; also: printed as H-DMT-a-THP-bhF-Sar-NH2
B18: H-DMT-r-Sar-W-NH2 (peptide)
peptide: H-[Dmt][dR][Sar]W-NH2
SMILES: Cc1cc(O)cc(C)c1C[C@H](N)C(=O)N[C@H](CCCNC(=N)N)C(=O)N(C)CC(=O)N[C@@H](Cc1c[nH]c2ccccc12)C(N)=O
B19: H-DMT-r-Phe(3,4-diCl)-Sar-NH2 (peptide)
peptide: H-[Dmt][dR][Phe(3,4-Cl2)][Sar]-NH2
SMILES: Cc1cc(O)cc(C)c1C[C@H](N)C(=O)N[C@H](CCCNC(=N)N)C(=O)N[C@@H](Cc1ccc(Cl)c(Cl)c1)C(=O)N(C)CC(N)=O
B20: H-Phe(DMC)-Aib-G-bhF-Sar-NH2 (peptide)
peptide: H-[Phe(2,6-Me2,4-CONH2)][Aib]G[β3hF][Sar]-NH2
SMILES: Cc1cc(C(N)=O)cc(C)c1C[C@H](N)C(=O)NC(C)(C)C(=O)NCC(=O)N[C@H](CC(=O)N(C)CC(N)=O)Cc1ccccc1
B21: H-Phe(DMC)-A-G-bhF-Sar-OH (peptide)
peptide: H-[Phe(2,6-Me2,4-CONH2)]AG[β3hF][Sar]-OH
B22: H-DMT-r-F-DPA-NH2 (peptide)
peptide: H-[Dmt][dR]F[Dip]-NH2
SMILES: Cc1cc(O)cc(C)c1C[C@H](N)C(=O)N[C@H](CCCNC(=N)N)C(=O)N[C@@H](Cc1ccccc1)C(=O)N[C@H](C(N)=O)C(c1ccccc1)c1ccccc1
B23: H-DMT-r-4-tBu-Phe-Sar-NH2 (peptide)
peptide: H-[Dmt][dR][Phe(4-tBu)][Sar]-NH2
SMILES: Cc1cc(O)cc(C)c1C[C@H](N)C(=O)N[C@H](CCCNC(=N)N)C(=O)N[C@@H](Cc1ccc(C(C)(C)C)cc1)C(=O)N(C)CC(N)=O
B24: H-Phe(DMC)-N(Me)Arg-G-bhF-Sar-NH2 (peptide)
peptide: H-[Phe(2,6-Me2,4-CONH2)][NMeR]G[β3hF][Sar]-NH2
SMILES: Cc1cc(C(N)=O)cc(C)c1C[C@H](N)C(=O)N(C)[C@@H](CCCNC(=N)N)C(=O)NCC(=O)N[C@H](CC(=O)N(C)CC(N)=O)Cc1ccccc1
B25: H-DMT-r-DPA-Sar-NH2 (Seq. ID 32) (peptide)
peptide: H-[Dmt][dR][Dip][Sar]-NH2
SMILES: Cc1cc(O)cc(C)c1C[C@H](N)C(=O)N[C@H](CCCNC(=N)N)C(=O)N[C@H](C(=O)N(C)CC(N)=O)C(c1ccccc1)c1ccccc1
B26: H-Phe(DMC)-a-G-Tic-Sar-NH2 (peptide)
peptide: H-[Phe(2,6-Me2,4-CONH2)][dA]G[Tic][Sar]-NH2
B27: H-Phe(DMC)-a-G-bhF-Gly-NH2 (peptide)
peptide: H-[Phe(2,6-Me2,4-CONH2)][dA]G[β3hF]G-NH2
SMILES: Cc1cc(C(N)=O)cc(C)c1C[C@H](N)C(=O)N[C@H](C)C(=O)NCC(=O)N[C@H](CC(=O)NCC(N)=O)Cc1ccccc1
B28: H-Phe(DMC)-(D)Asp-G-bhF-Sar-NH2 (peptide)
peptide: H-[Phe(2,6-Me2,4-CONH2)][dD]G[β3hF][Sar]-NH2
SMILES: Cc1cc(C(N)=O)cc(C)c1C[C@H](N)C(=O)N[C@H](CC(=O)O)C(=O)NCC(=O)N[C@H](CC(=O)N(C)CC(N)=O)Cc1ccccc1
B29: H-DMT-r-BIP-Sar-NH2 (peptide)
peptide: H-[Dmt][dR][BIP][Sar]-NH2
B30: H-DMT-r-F-(D)N(Me)Phe-NH2 (peptide)
peptide: H-[Dmt][dR]F[dNMeF]-NH2
SMILES: Cc1cc(O)cc(C)c1C[C@H](N)C(=O)N[C@H](CCCNC(=N)N)C(=O)N[C@@H](Cc1ccccc1)C(=O)N(C)[C@H](Cc1ccccc1)C(N)=O
B31: H-DMT-r-W-Nle-NH2 (peptide)
peptide: H-[Dmt][dR]W[Nle]-NH2
SMILES: CCCC[C@H](NC(=O)[C@H](Cc1c[nH]c2ccccc12)NC(=O)[C@@H](CCCNC(=N)N)NC(=O)[C@@H](N)Cc1c(C)cc(O)cc1C)C(N)=O
B32: H-DMT-r-F-Octyl Gly-NH2 (peptide)
peptide: H-[Dmt][dR]F[N(octyl)Gly]-NH2
SMILES: CCCCCCCCN(CC(N)=O)C(=O)[C@H](Cc1ccccc1)NC(=O)[C@@H](CCCNC(=N)N)NC(=O)[C@@H](N)Cc1c(C)cc(O)cc1C
B33: H-DMT-r-F-Phe(3,4-diOMe)-NH2 (peptide)
peptide: H-[Dmt][dR]F[Phe(3,4-(OMe)2)]-NH2
SMILES: COc1ccc(C[C@H](NC(=O)[C@H](Cc2ccccc2)NC(=O)[C@@H](CCCNC(=N)N)NC(=O)[C@@H](N)Cc2c(C)cc(O)cc2C)C(N)=O)cc1OC
B34: H-DMT-r-F-alpha-MePhe-NH2 (peptide)
peptide: H-[Dmt][dR]F[αMeF]-NH2
SMILES: Cc1cc(O)cc(C)c1C[C@H](N)C(=O)N[C@H](CCCNC(=N)N)C(=O)N[C@@H](Cc1ccccc1)C(=O)N[C@@](C)(Cc1ccccc1)C(N)=O
B35: H-DMT-r-Phe(3,4-diOMe)-Sar-NH2 (peptide)
peptide: H-[Dmt][dR][Phe(3,4-(OMe)2)][Sar]-NH2
SMILES: COc1ccc(C[C@H](NC(=O)[C@@H](CCCNC(=N)N)NC(=O)[C@@H](N)Cc2c(C)cc(O)cc2C)C(=O)N(C)CC(N)=O)cc1OC
B36: H-DMT-r-DPA-Sar-NH2 (Seq. ID 26) (peptide)
peptide: H-[Dmt][dR][Dip][Sar]-NH2
SMILES: Cc1cc(O)cc(C)c1C[C@H](N)C(=O)N[C@H](CCCNC(=N)N)C(=O)N[C@H](C(=O)N(C)CC(N)=O)C(c1ccccc1)c1ccccc1
B37: H-DMT-r-Tic-Sar-NH2 (peptide)
peptide: H-[Dmt][dR][Tic][Sar]-NH2
SMILES: Cc1cc(O)cc(C)c1C[C@H](N)C(=O)N[C@H](CCCNC(=N)N)C(=O)N1Cc2ccccc2C[C@H]1C(=O)N(C)CC(N)=O

target: δ-opioid receptor (DOR), Human-ORPD1 (human, UniProt P41143 1-372); assay: cell-based or functional assay
Sequence (P41143 whole entry, stated change not applied): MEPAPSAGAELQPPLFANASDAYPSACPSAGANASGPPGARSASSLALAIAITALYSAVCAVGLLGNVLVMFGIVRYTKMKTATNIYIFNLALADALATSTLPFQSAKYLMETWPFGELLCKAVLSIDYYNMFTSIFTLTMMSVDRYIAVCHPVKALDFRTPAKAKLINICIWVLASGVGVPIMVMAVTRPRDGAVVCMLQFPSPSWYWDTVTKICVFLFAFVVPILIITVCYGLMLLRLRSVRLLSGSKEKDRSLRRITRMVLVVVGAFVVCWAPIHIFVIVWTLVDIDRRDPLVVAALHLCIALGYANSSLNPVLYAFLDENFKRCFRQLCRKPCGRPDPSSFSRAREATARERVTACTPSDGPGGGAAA

Binder | DOR EC50 [µM]
B1 | ≤ 0.2
B2 | ≤ 0.05
B3 | ≤ 0.01
B4 | ≤ 0.01
B5 | ≤ 0.2
B6 | ≤ 0.2
B7 | ≤ 0.2
B8 | ≤ 0.2
B9 | ≤ 0.05
B10 | ≤ 0.2
B11 | > 0.2
B12 | ≤ 0.05
B13 | > 0.2
B14 | ≤ 0.05
B15 | ≤ 0.05
B16 | ≤ 0.2
B17 | ≤ 0.2
B18 | > 0.2
B19 | ≤ 0.05

Binder | DOR EC50 [µM]
B20 | ≤ 0.05
B21 | ≤ 0.2
B22 | ≤ 0.05
B23 | > 0.2
B24 | ≤ 0.2
B25 | > 0.2
B26 | ≤ 0.05
B27 | ≤ 0.01
B28 | ≤ 0.001
B29 | ≤ 0.001
B30 | ≤ 0.05
B31 | ≤ 0.05
B32 | ≤ 0.2
B33 | ≤ 0.01
B34 | ≤ 0.01
B35 | > 0.2
B36 | > 0.2
B37 | > 0.2
